According to patent publication US20210032312A1 (Janssen / Centocor, published 2021):
Numbering of substitutions follows the chain as printed.

B1: P283AR9P1362_B10 (designed binder)
chain: LPAPKNLVVSRVTEDSARLSWKRRWDSFDSFLIQYQESEKVGEAIVLTVPGSERSYDLTGLKPGTEYTVSIYGVDVEWFNGLPHHSNPLSAIFTT
notes: FN3 domain
B2: P283BR9P1363_D11 (designed binder)
chain: LPAPKNLVVSRVTEDSARLSWNKKHDGQPTFDSFLIQYQESEKVGEAIVLTVPGSERSYDLTGLKPGTEYTVSIYGVDVVYEGSYPASSNPLSAIFTT
notes: FN3 domain
B3: P283BR9P1363_C4 (designed binder)
chain: LPAPKNLVVSRVTEDSARLSWPIVNTPLHFDSFLIQYQESEKVGEAIVLTVPGSERSYDLTGLKPGTEYTVSIYGVDVQYTATGQPERSNPLSAIFTT
notes: FN3 domain
B4: P283AR9P1362_D2 (designed binder)
chain: LPAPKNLVVSRVTEDSARLSWQRPKSGFFDSFLIQYQESEKVGEAIVLTVPGSERSYDLTGLKPGTEYTVSIYGVDVKYDIDSRPISSNPLSAIFTT
notes: FN3 domain
B5: P283AR9P1362_H11 (designed binder)
chain: B4 chain with Q22P, R23K, P24I, K25Q, S26G, G27Q, F28H
notes: FN3 domain
B6: P283AR9P1362_B2 (designed binder)
chain: LPAPKNLVVSRVTEDSARLSWAKHPNSFDSFLIQYQESEKVGEAIVLTVPGSERSYDLTGLKPGTEYTVSIYGVDVVVNELNNPLFSNPLSAIFTT
notes: FN3 domain
B7: P282FR9P1361_F7 (designed binder)
chain: LPAPKNLVVSRVTEDSARLSWTAPDAAFDSFPIWYREYATGEAIVLTVPGSERSYDLTGLKPGTEYDVVITGVKGGYPSYPLSAIFTT
notes: FN3 domain
B8: P282FR9P1361_H4 (designed binder)
chain: LPAPKNLVVSRVTEDSARLSWTAPDAAFDSFGIWYAEYGYSGEAIVLTVPGSERSYDLTGLKPGTEYDVAIYGVKGGSPSYPLSAIFTT
notes: FN3 domain
B9: P283AR9P1362_C6 (designed binder)
chain: LPAPKNLVVSRVTEDSARLSWYPSDPPFDSFLIQYQESEKVGEAIVLTVPGSERSYDLTGLKPGTEYTVSIYGVPNYHSRRSYYYSNPLSAIFTT
notes: FN3 domain
B10: P283BR9P1363_A8 (designed binder)
chain: LPAPKNLVVSRVTEDSARLSWVRSDTARFFDSFLIQYQESEKVGEAIVLTVPGSERSYDLTGLKPGTEYTVSIYGVDVKYDIDSRPISSNPLSAIFTT
notes: FN3 domain
B11: P282FR9P1361_E12 (designed binder)
chain: LPAPKNLVVSRVTEDSARLSWTAPDAAFDSLGITYWESPYAGEAIVLTVPGSERSYDLTGLKPGTEYGVFILGVKGGYPSAPLSAIFTT
notes: FN3 domain
B12: P282FR9P1361_G9 (designed binder)
chain: B11 chain with L31F
notes: FN3 domain
B13: P283DR9P1364_E8 (designed binder)
chain: LPAPKNLVVSRVTEDSARLSWTAPDAAFDSFSIAYPEWPVHGEAIVLTVPGSERSYDLTGLKPGTEYFVIIYGVKGGVLSEPLSAIFTT
notes: FN3 domain
B14: P283DR9P1364_A4 (designed binder)
chain: B13 chain with S32Y, H41Q, V78D, L79W
notes: FN3 domain
B15: P283DR9P1364_A7 (designed binder)
chain: B13 chain with S32R, H41R, E43D, F68W, Y72Q, V78T, L79D, E81F
notes: FN3 domain
B16: P283FR9P1366_H11 (designed binder)
chain: LPAPKNLVVSRVTEDSARLSWTAPDAAFDSFQIQYLETAPDGEAIVLTVPGSERSYDLTGLKPGTEYYVWIPGVKGGAFSPLSAIFTT
notes: FN3 domain

The binders below were run against T1, human CD8 alpha (CD8A) on primary human CD8+ T cells (human, UniProt P01732 22-235) (assay: flow cytometry, human CD8+ T cells, 0.2 uM FN3).
T1 construct: whole, on cells; also called hCD8A
T1 sequence (P01732 22-235): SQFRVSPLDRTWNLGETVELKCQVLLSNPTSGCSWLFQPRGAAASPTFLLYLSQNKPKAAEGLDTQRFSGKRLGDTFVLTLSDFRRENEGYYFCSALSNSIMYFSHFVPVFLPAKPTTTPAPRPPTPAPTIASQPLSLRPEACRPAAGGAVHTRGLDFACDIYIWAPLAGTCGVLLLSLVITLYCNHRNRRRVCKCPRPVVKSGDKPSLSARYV
With B1 the “Human T-cell Binding 0.2 uM (MFI)” value was 3700 MFI. In the case of B2, the “Human T-cell Binding 0.2 uM (MFI)” value is reported as 2890 MFI. B3 was tested, and the “Human T-cell Binding 0.2 uM (MFI)” value was 2250 MFI. In the case of B4, the “Human T-cell Binding 0.2 uM (MFI)” value is reported as 2760 MFI. B5 was tested, and the “Human T-cell Binding 0.2 uM (MFI)” value was 2270 MFI. For B6, the “Human T-cell Binding 0.2 uM (MFI)” value was 3500 MFI. In the case of B7, the “Human T-cell Binding 0.2 uM (MFI)” value is reported as 1110 MFI. B8 was tested, and the “Human T-cell Binding 0.2 uM (MFI)” value was 3740 MFI. B9 was tested, and the “Human T-cell Binding 0.2 uM (MFI)” value was 4150 MFI. In the case of B10, the “Human T-cell Binding 0.2 uM (MFI)” value is reported as 2540 MFI. For B11, the “Human T-cell Binding 0.2 uM (MFI)” value was 1130 MFI. With B12 the “Human T-cell Binding 0.2 uM (MFI)” value was 297 MFI.

What follows are binders tested against T2, cynomolgus monkey CD8A on primary cynomolgus monkey CD8+ T cells (cynomolgus monkey, UniProt P01732 23-235 (human entry)) (assay: flow cytometry, cyno CD8+ T cells, 2 uM FN3).
T2 construct: also called Cyno CD8alpha
T2 sequence (P01732 other isoform, or with tags, fused parts or gaps limits assumed): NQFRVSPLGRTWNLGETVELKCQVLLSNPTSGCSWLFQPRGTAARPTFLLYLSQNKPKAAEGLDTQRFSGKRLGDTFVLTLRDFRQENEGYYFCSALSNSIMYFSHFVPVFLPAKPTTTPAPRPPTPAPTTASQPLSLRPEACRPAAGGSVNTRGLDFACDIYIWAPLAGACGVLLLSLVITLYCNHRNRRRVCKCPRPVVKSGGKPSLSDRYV
B1 was tested, and the “Cyno T-cell Binding 2 uM (MFI)” value was 35700 MFI. B2 was tested, and the “Cyno T-cell Binding 2 uM (MFI)” value was 20600 MFI. In the case of B3, the “Cyno T-cell Binding 2 uM (MFI)” value is reported as 23400 MFI. B4 was tested, and the “Cyno T-cell Binding 2 uM (MFI)” value was 17200 MFI. With B5 the “Cyno T-cell Binding 2 uM (MFI)” value was 11600 MFI. In the case of B6, the “Cyno T-cell Binding 2 uM (MFI)” value is reported as 38800 MFI. In the case of B7, the “Cyno T-cell Binding 2 uM (MFI)” value is reported as 1700 MFI. B8 was tested, and the “Cyno T-cell Binding 2 uM (MFI)” value was 26300 MFI. With B9 the “Cyno T-cell Binding 2 uM (MFI)” value was 17500 MFI. For B10, the “Cyno T-cell Binding 2 uM (MFI)” value was 24200 MFI. In the case of B11, the “Cyno T-cell Binding 2 uM (MFI)” value is reported as 63500 MFI. In the case of B12, the “Cyno T-cell Binding 2 uM (MFI)” value is reported as 3750 MFI.

These binders were tested against T3, human CD8 alpha (CD8A) on primary human CD8+ T cells (human, UniProt P01732 22-235) (assay: flow cytometry, human CD8+ T cells).
T3 construct: whole, on cells; also called hCD8A
Experimental: (§1) Binding of the 190 ELISA hits to human and cynomologous monkey primary CD8 T cells was assessed by flow cytometry. The FN3 domain molecules were diluted to 2 μM and 0.2 μM in PBS and incubated with human or cynomologous monkey CD8+ T cells in 96-well format. After 1 hour at 4 C, the cells were washed once with PBS and then resuspended with an anti-FN3 domain antibody (PAB25) solution. Following this incubation, the cells were washed twice with PBS and a PE conjugated secondary antibody and a viability dye were added. Finally, cells were washed and resuspended in PBS for flow cytometric analysis using a BD Canto Instrument. Cells were gating on live cells and median fluorescence intensity of the bound Centyrins (PE channel) was calculated using Cytobank software.
T3 sequence (P01732 22-235): as the sequence (P01732 22-235) above
In the case of B13, the “Human T-cell Binding 0.2 uM (MFI)” value is reported as 1180 MFI and the “Human T-cell Binding 2 uM (MFI)” value is reported as 14300 MFI. B14 was tested, and the “Human T-cell Binding 0.2 uM (MFI)” value was 1024 MFI and the “Human T-cell Binding 2 uM (MFI)” value was 9490 MFI. For B15, the “Human T-cell Binding 0.2 uM (MFI)” value was 435 MFI and the “Human T-cell Binding 2 uM (MFI)” value was 8980 MFI. In the case of B16, the “Human T-cell Binding 0.2 uM (MFI)” value is reported as 2330 MFI and the “Human T-cell Binding 2 uM (MFI)” value is reported as 18900 MFI.

Each binder was assayed against T4, cynomolgus monkey CD8 alpha on primary cynomolgus CD8+ T cells (cynomolgus monkey, UniProt P01732 23-235 (human entry)) (assay: flow cytometry, cyno CD8+ T cells).
T4 construct: also called Cyno CD8alpha; cyno CD8A
T4 sequence (P01732 other isoform, or with tags, fused parts or gaps limits assumed): as the sequence (P01732 other isoform, or with tags, fused parts or gaps limits assumed) above
Experimental: as §1
With B13 the “Cyno T-cell Binding 0.2 uM (MFI)” value was 5510 MFI and the “Cyno T-cell Binding 2 uM (MFI)” value was 59300 MFI. For B14, the “Cyno T-cell Binding 0.2 uM (MFI)” value was 6650 MFI and the “Cyno T-cell Binding 2 uM (MFI)” value was 48300 MFI. With B15 the “Cyno T-cell Binding 0.2 uM (MFI)” value was 2640 MFI and the “Cyno T-cell Binding 2 uM (MFI)” value was 39900 MFI. With B16 the “Cyno T-cell Binding 0.2 uM (MFI)” value was 3660 MFI and the “Cyno T-cell Binding 2 uM (MFI)” value was 37400 MFI.

What follows are binders tested against T2, cynomolgus monkey CD8A on primary … (assay: flow cytometry, cyno CD8+ T cells, 0.2 uM FN3).
For B1, the “Cyno T-cell Binding 0.2 uM (MFI)” value was 8380 MFI. In the case of B2, the “Cyno T-cell Binding 0.2 uM (MFI)” value is reported as 11600 MFI. For B3, the “Cyno T-cell Binding 0.2 uM (MFI)” value was 3270 MFI. For B4, the “Cyno T-cell Binding 0.2 uM (MFI)” value was 5330 MFI. With B5 the “Cyno T-cell Binding 0.2 uM (MFI)” value was 3660 MFI. B6 was tested, and the “Cyno T-cell Binding 0.2 uM (MFI)” value was 6480 MFI. B7 was tested, and the “Cyno T-cell Binding 0.2 uM (MFI)” value was 353 MFI. B8 was tested, and the “Cyno T-cell Binding 0.2 uM (MFI)” value was 2500 MFI. In the case of B9, the “Cyno T-cell Binding 0.2 uM (MFI)” value is reported as 5690 MFI. With B10 the “Cyno T-cell Binding 0.2 uM (MFI)” value was 3450 MFI. B11 was tested, and the “Cyno T-cell Binding 0.2 uM (MFI)” value was 15100 MFI. With B12 the “Cyno T-cell Binding 0.2 uM (MFI)” value was 666 MFI.

What follows are binders tested against T5, In house human CD8A-Fc (human, UniProt P01732 22-182, limits assumed) (assay: SPR (ProteOn), captured hCD8A-Fc).
T5 construct: Captured on goat anti-human Fc on a ProteOn GLC chip; also called hCD8A-Fc; recombinant human CD8 alpha; not shown: linker with flag (and polyhistidine) tag and Fc of human IgG1
T5 sequence (P01732 22-182 limits assumed): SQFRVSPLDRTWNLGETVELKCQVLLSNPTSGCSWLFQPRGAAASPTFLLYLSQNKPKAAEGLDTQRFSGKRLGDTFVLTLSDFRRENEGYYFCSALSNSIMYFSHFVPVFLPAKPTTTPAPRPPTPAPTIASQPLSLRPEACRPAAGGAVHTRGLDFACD
B1 showed a koff of 0.000139 s⁻¹. B2 gave a koff of 0.000495 s⁻¹. Binder B3 has a koff of 0.000409 s⁻¹. Work on B4 yielded a koff of 0.000253 s⁻¹. B5 showed a koff of 0.00018 s⁻¹. Binder B6 has a koff of 0.00016 s⁻¹. For B7, the koff was 0.00114 s⁻¹. B8 was tested, and the koff was 0.000317 s⁻¹. For B9, the koff was 0.00109 s⁻¹. For B10, the koff was 0.000353 s⁻¹. For B11, the koff was 0.00109 s⁻¹. Binder B12 has a koff of 0.00653 s⁻¹.

Each binder was assayed against T6, human CD8A-Fc (in house) (human, UniProt P01732 22-182, limits assumed) (assay: SPR (ProteOn), captured hCD8A-Fc).
T6 construct: captured by goat anti-human Fc on the ProteOn chip; also called hCD8A-Fc; recombinant human CD8 alpha; not shown: linker/tag and Fc of human IgG1
T6 sequence (P01732 22-182 limits assumed): as above
With B13 the koff was 0.000756 s⁻¹. B14 showed a koff of 0.00109 s⁻¹. B15 was tested, and the koff was 0.00197 s⁻¹. For B16, the koff was 0.00139 s⁻¹.

These binders were tested against T1, human CD8 alpha (CD8A) on primary human … (assay: flow cytometry, human CD8+ T cells, 2 uM FN3).
B1 was tested, and the “Human T-cell Binding 2 uM (MFI)” value was 15400 MFI. B2 was tested, and the “Human T-cell Binding 2 uM (MFI)” value was 8690 MFI. In the case of B3, the “Human T-cell Binding 2 uM (MFI)” value is reported as 9070 MFI. B4 was tested, and the “Human T-cell Binding 2 uM (MFI)” value was 8650 MFI. In the case of B5, the “Human T-cell Binding 2 uM (MFI)” value is reported as 5730 MFI. B6 was tested, and the “Human T-cell Binding 2 uM (MFI)” value was 13600 MFI. B7 was tested, and the “Human T-cell Binding 2 uM (MFI)” value was 7000 MFI. In the case of B8, the “Human T-cell Binding 2 uM (MFI)” value is reported as 13100 MFI. B9 was tested, and the “Human T-cell Binding 2 uM (MFI)” value was 16000 MFI. For B10, the “Human T-cell Binding 2 uM (MFI)” value was 11300 MFI. With B11 the “Human T-cell Binding 2 uM (MFI)” value was 15800 MFI. With B12 the “Human T-cell Binding 2 uM (MFI)” value was 859 MFI.
